Two molecules from patent US20160136299A1 (Sanofi, published 2016) can be followed below.

The test deals with T1, Recombinant human FcγRI (human, UniProt P12314 16-292, limits assumed).
T1 construct: not shown: His tag (captured on anti-tetra-His antibody)
The test is described as follows: Biacore SPR; FcγRI captured on anti-tetra-His, antibody 100 nM.

T1 sequence (P12314 16-292 limits assumed): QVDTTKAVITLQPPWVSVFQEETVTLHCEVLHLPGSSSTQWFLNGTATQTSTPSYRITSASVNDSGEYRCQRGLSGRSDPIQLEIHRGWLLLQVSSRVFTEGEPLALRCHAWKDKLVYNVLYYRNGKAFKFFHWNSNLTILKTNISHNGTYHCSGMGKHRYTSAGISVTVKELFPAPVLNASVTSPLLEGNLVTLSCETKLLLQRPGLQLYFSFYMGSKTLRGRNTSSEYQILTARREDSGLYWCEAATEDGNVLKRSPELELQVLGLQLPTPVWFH

B1: Anti-αβTCR clone H66 S298N/Y300S antibody (antibody, human IgG1, kappa)
heavy: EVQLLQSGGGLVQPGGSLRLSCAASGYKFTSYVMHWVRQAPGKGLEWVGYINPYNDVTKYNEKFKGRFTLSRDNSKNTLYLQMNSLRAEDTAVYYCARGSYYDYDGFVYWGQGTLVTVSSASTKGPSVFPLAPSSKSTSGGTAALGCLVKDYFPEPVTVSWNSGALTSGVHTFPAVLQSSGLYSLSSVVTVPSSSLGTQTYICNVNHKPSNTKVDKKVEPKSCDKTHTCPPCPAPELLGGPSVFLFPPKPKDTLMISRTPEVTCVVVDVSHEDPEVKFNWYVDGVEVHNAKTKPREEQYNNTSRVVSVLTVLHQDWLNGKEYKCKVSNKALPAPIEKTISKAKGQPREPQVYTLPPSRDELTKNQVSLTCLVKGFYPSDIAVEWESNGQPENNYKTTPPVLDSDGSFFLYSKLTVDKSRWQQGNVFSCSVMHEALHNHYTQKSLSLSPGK
light: EIVLTQSPATLSLSPGERATLSCSATSSVSYMHWYQQKPGQAPRRLIYDTSKLASGVPARFSGSGSGTSYTLTISSLEPEDFAVYYCQQWSSNPLTFGGGTKVEIKRTVAAPSVFIFPPSDEQLKSGTASVVCLLNNFYPREAKVQWKVDNALQSGNSQESVTEQDSKDSTYSLSSTLTLSKADYEKHKVYACEVTHQGLSSPVTKSFNRGEC
notes: Full-length human IgG1; also called SY; S298N/Y300S H66
For B1, the binding result is listed as “binds”.

B2: Anti-αβTCR clone H66 N297Q/S298N/Y300S antibody (antibody, human IgG1, kappa)
heavy: EVQLLQSGGGLVQPGGSLRLSCAASGYKFTSYVMHWVRQAPGKGLEWVGYINPYNDVTKYNEKFKGRFTLSRDNSKNTLYLQMNSLRAEDTAVYYCARGSYYDYDGFVYWGQGTLVTVSSASTKGPSVFPLAPSSKSTSGGTAALGCLVKDYFPEPVTVSWNSGALTSGVHTFPAVLQSSGLYSLSSVVTVPSSSLGTQTYICNVNHKPSNTKVDKKVEPKSCDKTHTCPPCPAPELLGGPSVFLFPPKPKDTLMISRTPEVTCVVVDVSHEDPEVKFNWYVDGVEVHNAKTKPREEQYQNTSRVVSVLTVLHQDWLNGKEYKCKVSNKALPAPIEKTISKAKGQPREPQVYTLPPSRDELTKNQVSLTCLVKGFYPSDIAVEWESNGQPENNYKTTPPVLDSDGSFFLYSKLTVDKSRWQQGNVFSCSVMHEALHNHYTQKSLSLSPGK
light: EIVLTQSPATLSLSPGERATLSCSATSSVSYMHWYQQKPGQAPRRLIYDTSKLASGVPARFSGSGSGTSYTLTISSLEPEDFAVYYCQQWSSNPLTFGGGTKVEIKRTVAAPSVFIFPPSDEQLKSGTASVVCLLNNFYPREAKVQWKVDNALQSGNSQESVTEQDSKDSTYSLSSTLTLSKADYEKHKVYACEVTHQGLSSPVTKSFNRGEC
notes: Full-length human IgG1; also called NSY
Consider B2, for which the binding result is listed as “binds”.
